Laboratory results reported in US20260242735A1 (UNIVERSIT T BASEL, published 2026).

Key:
human CD33 S104A = human CD33 S104A (human, UniProt P20138 18-364); assay: flow cytometry on HEK293-T, alanine scan
human CD33 I105A = human CD33 I105A (human, UniProt P20138 18-364); assay: flow cytometry on HEK293-T, alanine scan
human CD33 N113A = human CD33 N113A (human, UniProt P20138 18-364); assay: flow cytometry on HEK293-T, alanine scan
human CD33 Y127A = human CD33 Y127A (human, UniProt P20138 18-364); assay: flow cytometry on HEK293-T, alanine scan
human CD33 Y127A, sequence (P20138 18-364 Y127A limits assumed): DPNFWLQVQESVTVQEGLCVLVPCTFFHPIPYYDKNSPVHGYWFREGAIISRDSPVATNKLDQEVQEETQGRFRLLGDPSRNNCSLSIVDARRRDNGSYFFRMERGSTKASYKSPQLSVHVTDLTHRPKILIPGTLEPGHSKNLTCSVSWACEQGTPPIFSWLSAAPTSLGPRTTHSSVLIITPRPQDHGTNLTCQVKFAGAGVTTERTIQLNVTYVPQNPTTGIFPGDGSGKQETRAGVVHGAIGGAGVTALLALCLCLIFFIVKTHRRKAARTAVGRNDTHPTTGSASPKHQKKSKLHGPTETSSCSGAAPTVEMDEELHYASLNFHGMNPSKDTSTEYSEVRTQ

human CD33 V138A = human CD33 V138A (human, UniProt P20138 18-364); assay: flow cytometry on HEK293-T, alanine scan
human CD33 V138A, sequence (P20138 18-364 V138A limits assumed): as the sequence (P20138 18-364 Y127A limits assumed) above, with A110Y, V121A counted along it

human CD33 P155A = human CD33 P155A (human, UniProt P20138 18-364); assay: flow cytometry on HEK293-T, alanine scan
human CD33 P155A, sequence (P20138 18-364 P155A limits assumed): as the sequence (P20138 18-364 Y127A limits assumed) above, with A110Y, P138A counted along it

human CD33 variant I47P = human CD33 variant I47P (human, UniProt P20138 18-364); assay: flow cytometry, IgG on cells expressing the mutant
human CD33 variant I47P, sequence (P20138 18-364 I47P limits assumed): as the sequence (P20138 18-364 Y127A limits assumed) above, with I30P, A110Y counted along it

human CD33 variant P48T = human CD33 variant P48T (human, UniProt P20138 18-364); assay: flow cytometry, IgG on cells expressing the mutant
human CD33 variant P48T, sequence (P20138 18-364 P48T limits assumed): as the sequence (P20138 18-364 Y127A limits assumed) above, with P31T, A110Y counted along it

human CD33 variant P48V = human CD33 variant P48V (human, UniProt P20138 18-364); assay: flow cytometry, IgG on cells expressing the mutant
human CD33 variant P48V, sequence (P20138 18-364 P48V limits assumed): as the sequence (P20138 18-364 Y127A limits assumed) above, with P31V, A110Y counted along it

human CD33 variant P48M = human CD33 variant P48M (human, UniProt P20138 18-364); assay: flow cytometry, IgG on cells expressing the mutant
human CD33 variant P48M, sequence (P20138 18-364 P48M limits assumed): as the sequence (P20138 18-364 Y127A limits assumed) above, with P31M, A110Y counted along it

human CD33 variant P48W = human CD33 variant P48W (human, UniProt P20138 18-364); assay: flow cytometry, IgG on cells expressing the mutant
human CD33 variant P48W, sequence (P20138 18-364 P48W limits assumed): as the sequence (P20138 18-364 Y127A limits assumed) above, with P31W, A110Y counted along it

human CD33 variant P48N = human CD33 variant P48N (human, UniProt P20138 18-364); assay: flow cytometry, IgG on cells expressing the mutant
human CD33 variant P48N, sequence (P20138 18-364 P48N limits assumed): as the sequence (P20138 18-364 Y127A limits assumed) above, with P31N, A110Y counted along it

human CD33 variant P48K = human CD33 variant P48K (human, UniProt P20138 18-364); assay: flow cytometry, IgG on cells expressing the mutant
human CD33 variant P48K, sequence (P20138 18-364 P48K limits assumed): as the sequence (P20138 18-364 Y127A limits assumed) above, with P31K, A110Y counted along it

human CD33 variant Y49S = human CD33 variant Y49S (human, UniProt P20138 18-364); assay: flow cytometry, IgG on cells expressing the mutant
human CD33 variant Y49S, sequence (P20138 18-364 Y49S limits assumed): as the sequence (P20138 18-364 Y127A limits assumed) above, with Y32S, A110Y counted along it

human CD33 variant Y50R = human CD33 variant Y50R (human, UniProt P20138 18-364); assay: flow cytometry, IgG on cells expressing the mutant
human CD33 variant Y50R, sequence (P20138 18-364 Y50R limits assumed): as the sequence (P20138 18-364 Y127A limits assumed) above, with Y33R, A110Y counted along it

human CD33 variant Y50P = human CD33 variant Y50P (human, UniProt P20138 18-364); assay: flow cytometry, IgG on cells expressing the mutant
human CD33 variant Y50P, sequence (P20138 18-364 Y50P limits assumed): as the sequence (P20138 18-364 Y127A limits assumed) above, with Y33P, A110Y counted along it

human CD33 variant K52S = human CD33 variant K52S (human, UniProt P20138 18-364); assay: flow cytometry, IgG on cells expressing the mutant
human CD33 variant K52S, sequence (P20138 18-364 K52S limits assumed): as the sequence (P20138 18-364 Y127A limits assumed) above, with K35S, A110Y counted along it

human CD33 variant K52F = human CD33 variant K52F (human, UniProt P20138 18-364); assay: flow cytometry, IgG on cells expressing the mutant
human CD33 variant K52F, sequence (P20138 18-364 K52F limits assumed): as the sequence (P20138 18-364 Y127A limits assumed) above, with K35F, A110Y counted along it

human CD33 variant I47L = human CD33 variant I47L (human, UniProt P20138 18-364); assay: flow cytometry, IgG on cells expressing the mutant
human CD33 variant I47L, sequence (P20138 18-364 I47L limits assumed): as the sequence (P20138 18-364 Y127A limits assumed) above, with I30L, A110Y counted along it

human CD33 variant K52Y = human CD33 variant K52Y (human, UniProt P20138 18-364); assay: flow cytometry, IgG on cells expressing the mutant
human CD33 variant K52Y, sequence (P20138 18-364 K52Y limits assumed): as the sequence (P20138 18-364 Y127A limits assumed) above, with K35Y, A110Y counted along it

human CD33 variant K52D = human CD33 variant K52D (human, UniProt P20138 18-364); assay: flow cytometry, IgG on cells expressing the mutant
human CD33 variant K52D, sequence (P20138 18-364 K52D limits assumed): as the sequence (P20138 18-364 Y127A limits assumed) above, with K35D, A110Y counted along it

human CD33 variant K52H = human CD33 variant K52H (human, UniProt P20138 18-364); assay: flow cytometry, IgG on cells expressing the mutant
human CD33 variant K52H, sequence (P20138 18-364 K52H limits assumed): as the sequence (P20138 18-364 Y127A limits assumed) above, with K35H, A110Y counted along it

human CD33 variant K52I = human CD33 variant K52I (human, UniProt P20138 18-364); assay: flow cytometry, IgG on cells expressing the mutant
human CD33 variant K52I, sequence (P20138 18-364 K52I limits assumed): as the sequence (P20138 18-364 Y127A limits assumed) above, with K35I, A110Y counted along it

human CD33 variant M120V = human CD33 variant M120V (human, UniProt P20138 18-364); assay: flow cytometry, IgG on cells expressing the mutant
human CD33 variant M120V, sequence (P20138 18-364 M120V limits assumed): as the sequence (P20138 18-364 Y127A limits assumed) above, with M103V, A110Y counted along it

human CD33 variant M120L = human CD33 variant M120L (human, UniProt P20138 18-364); assay: flow cytometry, IgG on cells expressing the mutant
human CD33 variant M120L, sequence (P20138 18-364 M120L limits assumed): as the sequence (P20138 18-364 Y127A limits assumed) above, with M103L, A110Y counted along it

human CD33 variant R122G = human CD33 variant R122G (human, UniProt P20138 18-364); assay: flow cytometry, IgG on cells expressing the mutant
human CD33 variant R122G, sequence (P20138 18-364 R122G limits assumed): as the sequence (P20138 18-364 Y127A limits assumed) above, with R105G, A110Y counted along it

human CD33 variant R122S = human CD33 variant R122S (human, UniProt P20138 18-364); assay: flow cytometry, IgG on cells expressing the mutant
human CD33 variant R122S, sequence (P20138 18-364 R122S limits assumed): as the sequence (P20138 18-364 Y127A limits assumed) above, with R105S, A110Y counted along it

human CD33 variant R122E = human CD33 variant R122E (human, UniProt P20138 18-364); assay: flow cytometry, IgG on cells expressing the mutant
human CD33 variant R122E, sequence (P20138 18-364 R122E limits assumed): as the sequence (P20138 18-364 Y127A limits assumed) above, with R105E, A110Y counted along it

human CD33 variant R122T = human CD33 variant R122T (human, UniProt P20138 18-364); assay: flow cytometry, IgG on cells expressing the mutant
human CD33 variant R122T, sequence (P20138 18-364 R122T limits assumed): as the sequence (P20138 18-364 Y127A limits assumed) above, with R105T, A110Y counted along it

human CD33 variant Y127R = human CD33 variant Y127R (human, UniProt P20138 18-364); assay: flow cytometry, IgG on cells expressing the mutant
human CD33 variant Y127R, sequence (P20138 18-364 Y127R limits assumed): as the sequence (P20138 18-364 Y127A limits assumed) above, with A110R counted along it

human CD33 variant I47Y = human CD33 variant I47Y (human, UniProt P20138 18-364); assay: flow cytometry, IgG on cells expressing the mutant
human CD33 variant I47Y, sequence (P20138 18-364 I47Y limits assumed): as the sequence (P20138 18-364 Y127A limits assumed) above, with I30Y, A110Y counted along it

human CD33 variant S131G = human CD33 variant S131G (human, UniProt P20138 18-364); assay: flow cytometry, IgG on cells expressing the mutant
human CD33 variant S131G, sequence (P20138 18-364 S131G limits assumed): as the sequence (P20138 18-364 Y127A limits assumed) above, with A110Y, S114G counted along it

human CD33 I105A, sequence (P20138 18-364 I105A limits assumed): as the sequence (P20138 18-364 Y127A limits assumed) above, with I88A, A110Y counted along it
human CD33 S104A, sequence (P20138 18-364 S104A limits assumed): as the sequence (P20138 18-364 Y127A limits assumed) above, with S87A, A110Y counted along it
human CD33 N113A, sequence (P20138 18-364 N113A limits assumed): as the sequence (P20138 18-364 Y127A limits assumed) above, with N96A, A110Y counted along it

B1: Refmab #2 (antibody, V domains shown)
VH: QVQLVQSGAEVKKPGSSVKVSCKASGGTFSDYAISWVRQAPGQGLEWMGRIIPILGVADYAQKFQGRVTITADKSTRTAYMELSSLRSEDTAVYYCARNWADAFDIWGQGTMVTVSS
VL: DIQLTQSPSSLSASVGDRVTITCRASQGISSVLAWYQQKPGKAPKLLIYDASSLESGVPSRFSGSGSGTDFTLTISSLQPEDFATYYCQQFDSSITFGQGTKLEIK
notes: The alanine scan used IgG or Fab
With B1 the “Mean % WT Binding” value (human CD33 S104A) was 109 % WT binding, the “Mean % WT Binding” value (human CD33 I105A) was 43.7 % WT binding and the “Mean % WT Binding” value (human CD33 N113A) was 91 % WT binding. The “Mean % WT Binding” value (human CD33 Y127A) was 146 % WT binding, the “Mean % WT Binding” value (human CD33 V138A) was 98.5 % WT binding and the “Mean % WT Binding” value (human CD33 P155A) was 126 % WT binding.

B2: Refmab #2 (antibody, human IgG1, V domains shown)
VH: QVQLVQSGAEVKKPGSSVKVSCKASGGTFSDYAISWVRQAPGQGLEWMGRIIPILGVADYAQKFQGRVTITADKSTRTAYMELSSLRSEDTAVYYCARNWADAFDIWGQGTMVTVSS
VL: DIQLTQSPSSLSASVGDRVTITCRASQGISSVLAWYQQKPGKAPKLLIYDASSLESGVPSRFSGSGSGTDFTLTISSLQPEDFATYYCQQFDSSITFGQGTKLEIK
notes: Tested in IgG format; human IgG1 Fc silent (PG-LALA)
For B2, the “Mean % WT Binding” value (human CD33 variant I47P) was 0.7 % of WT, the “Mean % WT Binding” value (human CD33 variant P48T) was 71.3 % of WT and the “Mean % WT Binding” value (human CD33 variant P48V) was 79.5 % of WT. For the same binder, the “Mean % WT Binding” value (human CD33 variant P48M) was 87.5 % of WT, the “Mean % WT Binding” value (human CD33 variant P48W) was 68.8 % of WT and the “Mean % WT Binding” value (human CD33 variant P48N) was 95.2 % of WT. For the same binder, the “Mean % WT Binding” value (human CD33 variant P48K) was 106 % of WT, the “Mean % WT Binding” value (human CD33 variant Y49S) was 87.2 % of WT and the “Mean % WT Binding” value (human CD33 variant Y50R) was 109 % of WT. The “Mean % WT Binding” value (human CD33 variant Y50P) was 95.8 % of WT, the “Mean % WT Binding” value (human CD33 variant K52S) was 113 % of WT and the “Mean % WT Binding” value (human CD33 variant K52F) was 3.9 % of WT. For the same binder, the “Mean % WT Binding” value (human CD33 variant I47L) was 2.8 % of WT, the “Mean % WT Binding” value (human CD33 variant K52Y) was 21 % of WT and the “Mean % WT Binding” value (human CD33 variant K52D) was 5.3 % of WT. The “Mean % WT Binding” value (human CD33 variant K52H) was 84.7 % of WT, the “Mean % WT Binding” value (human CD33 variant K52I) was 86.8 % of WT and the “Mean % WT Binding” value (human CD33 variant M120V) was 95.5 % of WT. The “Mean % WT Binding” value (human CD33 variant M120L) was 124 % of WT, the “Mean % WT Binding” value (human CD33 variant R122G) was 12.2 % of WT and the “Mean % WT Binding” value (human CD33 variant R122S) was 3.4 % of WT. The “Mean % WT Binding” value (human CD33 variant R122E) was 0.6 % of WT, the “Mean % WT Binding” value (human CD33 variant R122T) was 1.5 % of WT and the “Mean % WT Binding” value (human CD33 variant Y127R) was 110 % of WT. For the same binder, the “Mean % WT Binding” value (human CD33 variant I47Y) was 1.4 % of WT and the “Mean % WT Binding” value (human CD33 variant S131G) was 112 % of WT.

B3: Refmab #1 (antibody, V domains shown)
VH: EVQLVQSGAEVKKPGSSVKVSCKASGYTITDSNIHWVRQAPGQSLEWIGYIYPYNGGTDYNQKFKNRATLTVDNPTNTAYMELSSLRSEDTAFYYCVNGNPWLAYWGQGTLVTVSS
VL: DIQLTQSPSTLSASVGDRVTITCRASESLDNYGIRFLTWFQQKPGKAPKLLMYAASNQGSGVPSRFSGSGSGTEFTLTISSLQPDDFATYYCQQTKEVPWSFGQGTKVEVK
notes: The alanine scan used IgG or Fab; also called hP67.6
B3 was tested, and the “Mean % WT Binding” value (human CD33 S104A) was 89 % WT binding, the “Mean % WT Binding” value (human CD33 I105A) was 31.5 % WT binding and the “Mean % WT Binding” value (human CD33 N113A) was 96 % WT binding. For the same binder, the “Mean % WT Binding” value (human CD33 Y127A) was 92.6 % WT binding, the “Mean % WT Binding” value (human CD33 V138A) was 72.3 % WT binding and the “Mean % WT Binding” value (human CD33 P155A) was 84.4 % WT binding.
